Laboratory results: patent US20230220008A1

Target: CD137 on Jurkat reporter cells (Promega) (UniProt Q07011)
Test: cell-based or functional assay

Chain of CD137 on Jurkat reporter cells (Promega) (Q07011 24-255 limits assumed): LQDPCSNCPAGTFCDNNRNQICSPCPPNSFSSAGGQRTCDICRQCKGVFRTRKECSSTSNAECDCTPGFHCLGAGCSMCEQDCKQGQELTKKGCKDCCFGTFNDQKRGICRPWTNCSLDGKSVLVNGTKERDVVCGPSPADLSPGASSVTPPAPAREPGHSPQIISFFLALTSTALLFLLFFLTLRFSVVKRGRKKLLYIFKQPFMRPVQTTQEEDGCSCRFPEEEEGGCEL

Substance: CD137 ligand (from UniProt P41273 71-254)
- Average EC50: 14.2 nM
- Average fold induction: 4 fold
